Patent US20210253725A1 (BIONTECH, published 2021)
Residue numbers refer to the chain shown, from its start. Numbers in names are those of the source.

B1: P018.S.02.A.C06 (antibody, V domains shown)
VH: QEQLEESGGGLVQPEGSLTLTCKASGIDFSSNYYISWVRQAPGKGLEWIGCIYTGSDDAAYYASWAKGRFTISKTSSTTVTLQMTSLTAADTATYFCAREILYPTNTDSFDLWGPGTLVTVSS
VL: AQVLTQTPSSVSEPVGGIVTINCQASESISSRLAWYQQKPGQPPKLLIYRAATLASGVPSRFKGSGSGTDFTLTISDLESADAATYYCQSYVGASSGGYFFGGGTEVVVK
notes: V regions on human Ig constant parts; also called AB27_32
B2: P018.S.02.A.H05 (antibody, V domains shown)
VH: QSLEESGGDLVKPGASLTLTCTASGIDFSSSSMCWVRQAPGKGLEWIACIDTGSSGRTDYASWAKGRFTLSKTSATTVTLQMTSLTAADTATYFCTRYGDYAGYGYDSFDPWGPGTLVTVSS
VL: AQVLTQTPSSVSAAVGGTVTINCQASQNINNWCSWYQQKPGQPPKLLIAYASTLASGVSSRFKGSGSGTQFTLTISGVQSDDAATYYCQQTFDCTDVENVFGGGTEVVVK
notes: V regions on human Ig constant parts; also called AB27_40
B3: P018.S.07.A.H04 (antibody, V domains shown)
VH: QSLEESGGRLVTPGTPLTLTCTVSGLSLSSYDMSWVRQAPGKGLEWIGYIWSGGSTDYASWAKGRFTISKTSTTVDLKIISPTTEDTATYFCARGYVEFDLWGPGTLVTVSS
VL: DPVLTQTPPSVSAAVGGTVTINCQSSQSLYSNNYLSWYQQKAGQPPKVLIWPASSLASGVPSRFKGSASGTQFTLTISELQSDDAATYYCQGTFYDSGWLSAFGGGTEVVVK
notes: V regions on human Ig constant parts; also called AB27_132
B4: P018.S.03.A.D02 (antibody, V domains shown)
VH: B3 VH with L3V, S55T
VL: B3 VL with A42P, A68G, A102T
notes: V regions on human Ig constant parts; also called AB27_47
B5: P018.S.01.A.G04 (antibody, V domains shown)
VH: QEQLVESGGGLVQPEGSLTLTCTASGVSFSNNYYISWVRQAPGKGLEWIACVYTGDDDYTYYPSWAKGRFTISKTSSTTVTLQMTSLTAADTATYFCAREILYPADTDSFDLWGPGTLVTVSS
VL: AFELTQTPSSVEAAVGGTVTIKCQASESISSRLAWYQQKPGQPPKLLIYRASTLASGVPSRFKGSGSGTDFTLTISDLESADAATYYCQAYVGISSGGYIFGGGTEVVVK
notes: V regions on human Ig constant parts; also called AB27_23
B6: P018.S.03.A.H04 (antibody, V domains shown)
VH: QSLEESGGRLVTPGTPLTLTCTASGFSLSNYSMNWVRQAPGKGLEWIGIINTYGSAYYASWAKGRFTISKTSTTVDLKMTSLTTEDTATYFCARDAGGSTVPWFFDVWGPGTLVTVSS
VL: AYDMTQTPASVEVAVGGTVTIKCQASQTISNYLAWYQQKPGQRPKLLIYDASKLASGVPSRFDGSGSGTEYTLTISGVGSADAATYYCQQGYADSNVDNVFGGGTEVVVK
notes: V regions on human Ig constant parts; also called AB27_62
B7: P018.S.08.A.D02 (antibody, V domains shown)
VH: QSVEESGGRLVTPGTPLTLTCTVSGFSLSHYHILWVRQAPGEGLKYIGITLNNGRIDYATWAKGRFTISKTSTTVDLEITSPTTEDTATYFCAKYFVSESYDLWGQGTLVTVSS
VL: TAVLTQTPSPVSAAVGSTVTINCQASQSVYNDNWLSWYQQKPGQPPKLLIYGASTLASGVPSRFKGSGSGTQFTLTISDVQSGDAATYYCLGGYKDNSDNVFGGGTEVVVK
notes: V regions on human Ig constant parts; also called AB27_138
B8: P018.S.09.A.D02 (antibody, V domains shown)
VH: QSLEESGGRLVTPGTPLTLTCTASGFSLSKYDMGWFRQAPGKGLEWIGMIGASDRTYYASWVKGRFTISKTSTTVDLRITSPTTEDTATYFCAREYPDARGYYYNLWGPGTPVTVSS
VL: ALVMTQTPASVEAAVGGTVTINCQASQSISDLLAWYQQKPGQPPKLLIYDASDLASGVPSRFSGSGSGTEFTLTISGVQSDDAATYYCQQGYSITNVDNVFGGGTEVVVK
notes: V regions on human Ig constant parts; also called AB27_150
B9: P018.S.01.A.D02 (antibody, V domains shown)
VH: B8 VH with R55S
VL: B8 VL with L46P, S63K, E70Q
notes: V regions on human Ig constant parts; also called AB27_11
B10: P018.S.01.A.B04 (antibody, V domains shown)
VH: QEQLEESGGRLVTPGGTLTLTCTASGFSLSSYDMSWVRQAPGKGLEWIGYIWSDGNTDYASWAAGRFTASRASTTVDLKMTSLTTEDTATYFCARGYTGFFLWGPGTLVTVSS
VL: DVVMTQTPSSVSAAVGGTVTIKCQASQSIGSSYLSWYQQKPGQPPKLLIYKTSTLASGVPSRFKGSGSGTEFTLTISDLESDDAATYYCQCTYYGGSWRVAFGGGTEVVVK
notes: V regions on human Ig constant parts; also called AB27_5
B11: P018.S.01.A.B05 (antibody, V domains shown)
VH: B10 VH with S61T
VL: B10 VL with G96S
notes: V regions on human Ig constant parts; also called AB27_6
B12: P018.S.02.A.F05 (antibody, V domains shown)
VH: QEQLVESGGDLVKPEGSLTLTCTASGFSFSSSYYMSWVRQAPGKGLEWIACIDTVDNYTYYASWAKGRFTISKTSSTTVSLQMTSLTAADTATYFCARERIAYNTDYFNLWGPGTLVTVSS
VL: AQVLTQTPSPVSAAVGGTVTISCQSSQSLYNYNNLAWYQQKPGQPPKLLIYSASNLASGVPSRFGGSGSGTQFTLTISDLQSDDAATYYCQGYYSGAVYTFGGGTEVVVK
notes: V regions on human Ig constant parts; also called AB27_35
B13: P018.S.04.A.C02 (antibody, V domains shown)
VH: B12 VH
VL: B12 VL with A53V, S67G, D83A
notes: V regions on human Ig constant parts; also called AB27_69
B14: P018.S.04.A.B01 (antibody, V domains shown)
VH: B12 VH with E15G, S17T, V55A, N57A
VL: B12 VL
notes: V regions on human Ig constant parts; also called AB27_66
B15: P018.S.02.A.B05 (antibody, V domains shown)
VH: B12 VH with D10G, K13Q, T23K, S28D, V55A, N57G
VL: B12 VL with A53V
notes: V regions on human Ig constant parts; also called AB27_31
B16: P018.S.07.A.B03 (antibody, V domains shown)
VH: QSVEESGGRLVTPGTPLTLTCTVSGFSLSSYAMGWVRQAPGKGLEWIGDIYGSGSTYYASWAKGRFTFSRTSTTVDLKMTSLTTEDTATYFCARSKGYNYNLWNLWGQGTLVTVSS
VL: DIVMTQTPSSVSAAVGGTVTINCQASQNIYTNLAWYQQKPGQRPKLLIYDASDLASGVPSRFSGSGSGTEYTLTISDLESADAATYYCQTYSYSGSSSANPFGGGTEVVVK
notes: V regions on human Ig constant parts; also called AB27_115
B17: P018.S.07.A.B04 (antibody, V domains shown)
VH: QSVEESGGRLVTPGTPLTLTCTVSGFSLSSYDMIWVRQAPGKGLEWIGIIYLTDTTYYANWTKGRFTISKTSTTVDLKISSPTTEDTATYFCARHLDTSSGGFYFNLWGQGTLVTVSS
VL: AQVLTQTPSSVSAAVGGTVTINCQASQSVYNSKILAWYQQKPGRPPKLLIYDASTLASGVPSRFKGSGSGTQFTLTISGVQSDDAATYFCQGEFTCTSADCIAFGGGTEVVVK
notes: V regions on human Ig constant parts; also called AB27_116
B18: P018.S.06.A.B03 (antibody, V domains shown)
VH: B17 VH with T62A
VL: B17 VL
notes: V regions on human Ig constant parts; also called AB27_99
B19: P018.S.05.A.D04 (antibody, V domains shown)
VH: QSLEESGGDLVKPGASLTLTCTASEFDFNNNAMCWVRQAPGKGLEWIACIYIGNGGTWYASWAKGRFTISKSSSTTVTLQVTSLTAADTATYFCARGENIAYFILWGPGTLVTVSS
VL: DIVMTQTPASVSAAVGGTVTIKCQASQSINSWLSWYQQKPGQPPKLLIYKASTLASGVPSRFKGSGSGTEFTLTISDLESADAATYYCQGYYYYSSSNYASNAFGGGTEVVVK
notes: V regions on human Ig constant parts; also called AB27_87

Target: T1, CD27 expressed on the cell surface (HT1080_CD27 cells) (human, UniProt P26842 20-260)
T1 sequence (looked up): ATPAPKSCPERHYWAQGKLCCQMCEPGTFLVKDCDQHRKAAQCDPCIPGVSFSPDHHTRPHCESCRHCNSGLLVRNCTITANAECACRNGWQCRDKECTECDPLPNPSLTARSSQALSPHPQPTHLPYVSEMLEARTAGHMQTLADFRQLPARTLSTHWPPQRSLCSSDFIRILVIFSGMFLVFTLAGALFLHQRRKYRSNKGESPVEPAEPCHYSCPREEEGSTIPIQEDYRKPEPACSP
Assay: cell-based or functional assay
Also: test concentration or dose not given here.

Row | Binder | IL-8, cross-linked by F(ab')2 fragment [abs. corr.] | IL-8 [abs. corr.]
1 | B1 | 1.59 | 0.418
2 | B2 | 1.4 | 0.067
3 | B3 | 1.86 | 0.158
4 | B4 | 1.47 | 0.463
5 | B5 | 1.15 | 0.273
6 | B6 | 1.23 | 0.211
7 | B7 | 1.67 | 0.534
8 | B8 | 1.75 | 1.01
9 | B9 | 1.67 | 0.675
10 | B10 | 2.12 | 0.582
11 | B11 | 1.88 | 0.453
12 | B12 | 1.17 | 0.395
13 | B13 | 1.53 | 0.235
14 | B14 | 1.67 | 0.508
15 | B15 | 1.76 | 0.201
16 | B16 | 1.34 | 0.612
17 | B17 | 1.67 | 0.304
18 | B18 | 1.22 | 0.566
19 | B19 | 1.53 | 0.246

Target: T1, CD27 expressed on the cell surface …
Assay: cellular binding assay, HT1080_CD27 cells

Row | Binder | Cellular binding assay [RFU]
20 | B1 | 348
21 | B2 | 252
22 | B3 | 386
23 | B4 | 397
24 | B5 | 388
25 | B6 | 334
26 | B7 | 407
27 | B8 | 337
28 | B9 | 323
29 | B10 | 382
30 | B11 | 376
31 | B12 | 307
32 | B13 | 415
33 | B14 | 330
34 | B15 | 374
35 | B16 | 346
36 | B17 | 382
37 | B18 | 424
38 | B19 | 317

Target: T2, CD27 protein (His-tagged, Sino Biological Inc. 10039-H08B1) (human, UniProt P26842 20-192)
T2 construct: bought; coated onto ELISA plates; also called human CD27; recombinant protein; not shown: His tag
T2 sequence (looked up): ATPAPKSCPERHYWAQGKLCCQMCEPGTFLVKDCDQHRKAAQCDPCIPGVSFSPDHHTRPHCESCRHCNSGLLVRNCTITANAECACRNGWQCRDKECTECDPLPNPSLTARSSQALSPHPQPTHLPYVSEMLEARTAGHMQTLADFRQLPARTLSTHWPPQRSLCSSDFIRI
Assay: ELISA on coated His-tagged CD27

Row | Binder | ELISA [abs. corr.]
39 | B1 | 3.37
40 | B2 | 3.38
41 | B3 | 3.4
42 | B4 | 3.37
43 | B5 | 3.77
44 | B6 | 3.59
45 | B7 | 3.37
46 | B8 | 3.37
47 | B9 | 3.26
48 | B10 | 3.36
49 | B11 | 3.5
50 | B12 | 3.44
51 | B13 | 3.37
52 | B14 | 3.38
53 | B15 | 3.48
54 | B16 | 3.37
55 | B17 | 3.63
56 | B18 | 3.59
57 | B19 | 3.37
